Consider one molecule from patent publication US20120100132A1 (INDUSTRIAL TECHNOLOGY RESEARCH INSTITUTE, published 2012).

This test has as its target T1, uncleavable form of transmembrane TNF-α (deletion mutant, amino acids +1 through +12 deleted) expressed on … (UniProt P01375 1-233).
T1 construct: whole, on cells; The deletion of +1 to +12 cannot be written as substitutions, so it is described under detail; also called deletion mutant transmembrane TNF-α resistant to TACE-mediated cleavage
Description: flow cytometry saturation binding on transmembrane TNF-α-transfected NS0 cells. Here is the method: Transmembrane TNF-α-transfected NS0 cells were incubated with serial log dilutions of m357-IgG (∘) or h357-IgG antibodies for 1 hr at 4° C. The cells were washed and incubated with Alexa Fluor 488 goat anti-mouse IgG (H+L) for m357-IgG and Alexa Fluor 647 goat anti-human IgG (H+L) for h357-IgG, respectively for 1 hr at 4° C. The cell were then washed and analyzed by a FACSCalibur flow cytometer; and
Transmembrane TNF-α transfected NS0 cells were incubated with serial log dilutions of m357 IgG and h357 IgG for 1 hour at 4° C. in phosphate buffered saline (PBS) containing 2% of a fetal bovine serum (fluorescence-activated cell sorting [FACS] buffer). Cells were washed with a FACS buffer 3 times and were then stained with an Alexa Fluor 488 goat anti-mouse IgG (H+L) for m357 IgG and an Alexa Fluor 647 goat anti-human IgG (H+L) for h357 IgG, respectively for 1 hour at 4° C. Fluorescence intensities were measured using a FACSCalibur flow cytometer (Becton Dickinson, San Jose, Calif.).
TNF-α exists as a membrane associated precursor (transmembrane TNF-α) from which a mature soluble form is released by proteolytic cleavage mediated by the TNF-α converting enzyme (TACE). […]

B1: m357 IgG (murine anti-human TNF-α monoclonal antibody from hybridoma 357-104-4, ECACC No. 92030603) (antibody, V domains shown)
VH: VKLQESGGGWVQPGGSMKLSCIASGFTFSNYWMNWVRQSPEKGLEWVAEVRLQSDNFTTHYAESVKGRFTISRDDSKSGVYLQMNNLGAEDTGIYYCTPFAYWGQGTTVTVSS
VL: EIVLTQSPPITSASPGEKVTMTCSASSSVSFMYWYQQKPGSSPRLLIYDASILASGVPVRFSGSGSGTSYSLTISRMEAEDVATYYCQQWSDYSPRTFGGGTKLEIK
notes: Whole murine IgG; also called m35-IgG
Molecule B1 came in with an equilibrium dissociation constant (Kd) of 12 nM.
